Reference: patent US8426686B2, “Polyunsaturated fatty acid production in heterologous organisms using PUFA polyketide synthase systems” (DSM IP Assets B.V., priority 2006, dated 2013)

Assays:
[1] = test system: acyl-CoA synthetases; assay: In vitro activity assay of Schizochytrium FAS-KO cell free homogenate with Triacsin C (HIP extraction, normal phase TLC, phosphorimage); type: biochemical; details: FAS-KO sample; Triacsin C 0, 25, 100 or 200 uM for 10 minutes, then ATP and Mg+2, additional 20 minutes; effect at higher concentrations
Method: An example of a protocol for in vitro activity assays of both FAS and PUFA synthase activities is as follows. In a final volume of 100 uL, mix the enzyme preparation and Buffer A (volume of these 2 components=90 uL) plus the following components added as a cocktail (in 10 uL) to yield the final concentrations indicated in parenthesis: malonyl-CoA (50 uM—a mixture of cold and malonyl-2-^14C-CoA such that the final concentration of radiolabel is 0.65 μCi/mL), NADH (1 mM), NADPH (1 mM) and acetyl-CoA (10 uM). These components and additional components can be adjusted depending on the requirements of the particular experiments. The assay reactions are carried out in glass tubes in a room temperature (˜21° C.) water bath. The time of incubation is dependant on the experimental requirements. The reactions are stopped by one of two methods depending on the work-up protocol. For conversion of fatty acids to fatty acid methyl-esters (FAMEs) using an acidic method, the reaction is stopped by adding the FAME reagent (see below). For extraction of lipids without derivatization, the reaction is stopped by addition of 125 uL of isopropanol:acetic acid (4:1 v/v) (see below). […]

[2] = test system: yeast; assay: FAME analysis of yeast expressing Schizochytrium PUFA synthase and Het I with co-expressed acyl-CoA synthetase; type: cell-based, Saccharomyces cerevisiae; details: data not shown
Source text: More specifically, the yeast expression system described in the Examples above was modified to accommodate introduction of the fifth ACoAS gene (i.e., the yeast also contained OrfsA, B and C of the Schizochytrium PUFA synthase system and a PPTase (Het I from Nostoc)) using 4 vectors. Yeast expression vectors in which two genes can be cloned (the pESC vectors) were obtained from Stratagene. These vectors are similar to and compatible with the pYES vectors described above. […] This provides confirmation that the accumulation of the products of the PUFA synthase in heterologous host can be increased by co-expression of enzymes that may be more efficient at utilization of those products.
In subsequent experiments, ScACS-3, ScACS-5, ScACS-6 and ScACS-8 were also tested in yeast that contained the genes encoding the Schizochytrium PUFA synthase system (e.g., sOrfA, sOrfB and nOrfC, and HetI), using similar methods as described above.

[3] = test system: Schizochytrium; assay: DAGAT gene knock out in Schizochytrium strain B73-8, lipid profile; type: cell-based; details: inactivation of the DAGAT gene in Schizochytrium B73-8
Source text: Using the knock out technology described above in Example 1 for FAS in Schizochytrium, the inventors similarly knocked out the DAGAT gene (comprising SEQ ID NO:100) in a Schizochytrium strain, denoted B73-8. […] Accordingly, the inventors concluded that this DAGAT is the primary enzyme responsible for TAG synthesis in Schizochytrium.

Molecule: CCC/C=C/C/C=C/C=C/C=N/NN=O [Triacsin C]
- radiolabel in the FFA band (loss after addition of ATP and Mg+2) [1]: blocked the loss of radiolabel from the FFA band

B1: ScACS-8: Schizochytrium acyl-CoA synthetase, SEQ ID NO:96/97 (protein, listed as Schizochytrium sp.)
chain: MDAEKVIKAGAAAGAAYLGWKYLDEKHGISHDLELARRLLKLKKEINERNTKRVFNVTNMWYEAYAKNPKKPALLYLDEVVTYQDMEDRSNQVANWLLSKGLKRGDTVALLMENRPEFVISWLGMTKIGVKVALINTSIKQKPLLHCLKISGCKIVLFGSELAEPILDIKDELADLGIELAAEGAREASPDWIEVVNPEIEASPKTATSPKLREGIGMQDVFGFIYTSGTTGLPKAAVILHQKMFSFGALMTNAFQCTQDDIVYTCLPLFHSAGGGLGIGIMLYTGATVVIKRKFSVTDFWSDCVKYKCTVVQYIGELCRYLVMAESRPEETQHKVRLAIGNGLRPEIWAEFQERFQIPQIGEFYGATEGNGALVQHCTKPEDRGAVGRMGSLLMRVTGVKFARFDVLEEAPVRGADGFCIECDVDEPGELLFPIRDNDPSSAFAGYNDPKATAKKIITDAFTKGDKYFRTGDLLSRDARGRIYFRDRIGDTFRCKGENVSTSEVAEVLSTYPGIEELNIYGVQIPNNEDGRFPCAALTPKDSDLSNVDLKGFYEHAKKNLPSYSIPMFIRVQPVMPVTATMKHQKVQLRKEGMDIHVIKDPMYWLHDVKKEYDPLTEEDYARIIGQRARL
- DHA production in yeast as compared to in the absence of the added acyl-CoA synthetase gene [2]: increased DHA production

B2: ScACS-3: Schizochytrium acyl-CoA synthetase, SEQ ID NO:86/87 (protein, listed as Schizochytrium sp.)
chain: MGCSGSKPAAPGEVPAVQGYEVTEEVAPGPYDPEKGPYYVSNKAERREIIFAAKGVASEATTPAMTLSKMFRKAAEASKDEVALAVEWPVPEIGADGKIPDSLPLDKWRTWTFGQYYADSHAMARAIVALGAERFDGVTIFGFNSPFWLMAQMAATLSTTLPAGIYPTDTAEQVRYKLRYTDTAVAFCGVEKEFTMLRAAVEDAPDLKAIVCWAHLPMVKTITREDGSKVKVMSWQEALALGEITPPAEVDARIEAQNPGDCAELVFTSGTTGLPKAVMLSHDNLCFAITSIVSTLEDFGRSGPESHLSYLPLSHIAGQEMDVLLPLVVTAFRESHHAVYFVRPYDLKTGTLIDRVKTVQPTAFLGVPRVYEKIMAKMRAKGASVKGLKKKIVQYSKKKGLEYQRNLEVGGSGGKPSNYGFAEKKVLSKVKEALGFTRLKFAISGAAPMSREVQEYFAGIGIAILDVYGASESTGGVTGNSIKAHQFGTVGHTLPGMDVRVFQKAEGGDSSAETGLGELREPARAKDIFHPSEEEQGEVCFRGRSVMLGYMANPKLGEEHVAEVERKNASAIDRHGWYHSGDKGACSKKNMFVITGRYKEIIIGAGGENIAPLPMEDAVKSLAPGVANAIMIGDKRKFNIMLITLRAEGATGEFPGSDNLDPDVRSIGSDSTRTIQKAMADSKWIEHVRDAISKTNANGDACQSNAWKIGRFTILPYDISIVGGELTPTLKLKRNFVDEKYKAVIDHVYAHEGDSKDLTYVPCPIDRVPRKISGDESAAGAASPEANVAEPVTAESGSPSEVTTEAKPANETDDAESKDAAAPLAAKVDTTVPDVAQPQAAS
- DHA production in yeast as compared to in the absence of the added acyl-CoA synthetase gene [2]: increased DHA production

B3: ScACS-5: Schizochytrium acyl-CoA synthetase, SEQ ID NO:90/91 (protein, listed as Schizochytrium sp.)
chain: MLEMREEVVKHEGEAAHFKGVKMKVFPNGFQTMVDIFKVPFEKQVMKNDLLVDETGRMTFQEVFDTAAALGDALVNEYGVEKGDRVVALSKNRNEYIVTMIAATSVGAIFAPLNSYWKTEQLSYGLDDSGAKVVVCDADRYVQLEPLLDGRASALERVLLLRGPGTEKFRPNAKTTAFDEVISKHAGARMPPFPCQKDDPAMIMYTSGTTGNPKGVVLTHRSIGEAMTGAVAAMTYEKTLAATRAGETLPEPEDPSLSAFLLAVPLFHVTGHHCVGLLSIISCRKIVLMSKWDPKLALELIESERITNFTGVPTMALDLMTHPDFKKRDTSTLKSLGGGGAAPPSTMVNDIDKNFKQASPLQAWGMTETNGIATLTEGDMYRRKPESCGKAIPNVEIAIWNARDEPVPAGAEGELVIRGSTCLKEYWNKPEATAKSITAEGWFRTGDIGVIDEEGFLQLKGRSKEIIIRGGENISCVVVENAVYNHDDINEVAAIPVPHPTLGEEVGIAVFSQSGARPSLQSIRDVCGNLARYEMPTHIYYWPEQLPRGDTGKIHKRTILADIKAGKVKDEAVPASKL
- DHA production in yeast as compared to in the absence of the added acyl-CoA synthetase gene [2]: increased DHA production

B4: DAGAT: Schizochytrium diacylglycerol acyltransferase, SEQ ID NO:100/101; gene knocked out in strain B73-8 (protein, listed as Schizochytrium sp.)
chain: MERPQAQASPARSEARRRRGDRSKGFADEDGETSVNTPNGMQTPYSTSMGSVSSYSSSGDYAMSEAEGSEVDPADDRMGDSIGSKPSSSSVTGRRRLTQEERDYFLRLEKEWREEDAWADQPGSWYSMLAWMPVLIGLRVFNVLLSIAFWPVSFVARVFFGKKIHTVSFWDVPLSRRKQTAVVLLFVMLLPMVVVVYSWTLVLLLFPLTTFPTLCYMVWIIYVDKSPETGSRRPFLRYWKMWRHFANYFPLRLIRTTPLDSRRKYVFCYHPHGIISLGAFGNFATDSTGFSRKFPGIDLRVLTLALNFYCPLLREFLLYLGLCSAAKKSCNQILQRGPGSAIMLVVGGAAESLDSQPGTYRLTLGRKGFVRVALDNGADLVPVLAFGENDVFDTVYLPPNSWARNVQEFVRKKLGFATPIFSGRGIFQYNMGLMPHRRPIIVVVGKPIKMPKIPDELKGRALSTTAEGVALVDKYHEKYVKALRELWNLYKERWAVHRQGSLLIQK
- reduction in TAG [3]: ~90%
- reduction in mg FAME/gm biomass [3]: ~80%
